In experiment [1] the target is TNF-α. As to the kind of experiment: competition ELISA against plate-bound TNFRI190; relative affinity from IC50. (In general: ELISA stands for enzyme-linked immunosorbent assay.)
The target in experiment [2] is TNF-α. The experiment can be described thus: cell-based or functional assay.

Consider “Met-TNFRI126 (from UniProt P19438 41-166) (receptor)”, for which, in the experiment with TNF-α [1], the Result Affinity (%) relative to wild-type TNFRI126 was determined as 100%. The substance “Met-TNFRI171 (from UniProt P19438 41-211) (receptor)” registered a Relative activity (cell based assay) (Folds) with TNF-α [2] of 1 fold.
